This is an account of results in paper PMC5947572, “The C‐terminal cytosolic domain of the human zinc transporter ZnT8 and its diabetes risk variant” (The Febs Journal, 2018).

Data set [1] deals with the molecule itself. The data set can be described thus: native gel or EMSA; native PAGE of the purified proteins; conditions not given.
Data set [2] concerns the molecule itself. The data set can be described thus: MST; homodimerisation (dimer to monomers); 100 nM Red-NHS-labelled apo-protein titrated with unlabelled apo-protein of the same variant (180 uM-5.5 nM ZnT8cR or 124 uM-3.8 nM ZnT8cW); 10 mM potassium phosphate pH 8, 60 mM NaCl, 20 mM sucrose, 100 uM TCEP, 1 mM EDTA, 0.05% Tween-20; 25 °C; Monolith NT.115.

B1: R325 variant of ZnT8 CTD (aa267-369) (domain or fragment, human, UniProt Q8IWU4 267-369, looked up)
chain: LKDFSILLMEGVPKSLNYSGVKELILAVDGVLSVHSLHIWSLTMNQVILSAHVATAASRDSQVVRREIAKALSKSFTMHSLTIQMESPVDQDPDCLFCEDPCD
modifications: amine-reactive Red-NHS dye (Monolith NT.115 labelling kit) on the labelled copy in MST; the titrated copy unlabelled
notes: human zinc transporter ZnT8 (SLC30A8), C-terminal cytosolic domain, residues 267-369, Arg at position 325; numbers count on the full-length human ZnT8 long isoform (Ensembl transcript SLC30A8-002); A TEV protease cleavage site stands between the N-terminal hexahistidine tag and the domain (vector pET6H); Calculated monomer mass with tag and TEV site 13.3 kDa; also called ZnT8cR; apo-ZnT8cR; …
As to B1, the “stoichiometry N” value in data set [1] came out at 2. In data set [2], this protein showed a Kd of 4.3 µM.

B2: W325 variant of ZnT8 CTD (aa267-369) (domain or fragment, human, UniProt Q8IWU4 267-369, looked up)
chain: LKDFSILLMEGVPKSLNYSGVKELILAVDGVLSVHSLHIWSLTMNQVILSAHVATAASWDSQVVRREIAKALSKSFTMHSLTIQMESPVDQDPDCLFCEDPCD
modifications: amine-reactive Red-NHS dye (Monolith NT.115 labelling kit) on the labelled copy in MST; the titrated copy unlabelled
notes: numbers count on the full-length human ZnT8 long isoform (Ensembl transcript SLC30A8-002); A TEV protease cleavage site stands between the N-terminal hexahistidine tag and the domain (vector pET6H); also called ZnT8cW; apo-ZnT8cW; source: apo form made with TCEP and EDTA; not shown: His6, N-terminal, kept
B2: the “stoichiometry N” value in data set [1] stood at 2. Further, the Kd in data set [2] was found to be 1.8 µM.

As a reminder, the stoichiometry N is the number of molecules, sites or subunits per partner or assembly. A word on the Kd: it is a measure of binding affinity in units of concentration.
